Paper PMC10192343, “Structural and functional analyses of the echinomycin resistance conferring protein Ecm16 from Streptomyces lasalocidi” (Scientific Reports, 2023)
Marks after values point to notes of the source that are not given here.

What was measured:
[1] = target: T1, UvrA (Thermotoga maritima, UniProt Q9WYV0); assay: ATPase, EnzChek phosphate assay (MESG/PNP, […] nm); type: biochemical; conditions: 1 µM echinomycin-DNA or DNA, 50 mM HEPES pH 7.5, 50 mM NaCl, 10 mM MgCl2, 22 °C
T1 construct: pET28a(+) construct, E. coli Rosetta (DE3) pLysS, His-Trap purified, no tag cleavage mentioned
T1 sequence (Q9WYV0 1-916): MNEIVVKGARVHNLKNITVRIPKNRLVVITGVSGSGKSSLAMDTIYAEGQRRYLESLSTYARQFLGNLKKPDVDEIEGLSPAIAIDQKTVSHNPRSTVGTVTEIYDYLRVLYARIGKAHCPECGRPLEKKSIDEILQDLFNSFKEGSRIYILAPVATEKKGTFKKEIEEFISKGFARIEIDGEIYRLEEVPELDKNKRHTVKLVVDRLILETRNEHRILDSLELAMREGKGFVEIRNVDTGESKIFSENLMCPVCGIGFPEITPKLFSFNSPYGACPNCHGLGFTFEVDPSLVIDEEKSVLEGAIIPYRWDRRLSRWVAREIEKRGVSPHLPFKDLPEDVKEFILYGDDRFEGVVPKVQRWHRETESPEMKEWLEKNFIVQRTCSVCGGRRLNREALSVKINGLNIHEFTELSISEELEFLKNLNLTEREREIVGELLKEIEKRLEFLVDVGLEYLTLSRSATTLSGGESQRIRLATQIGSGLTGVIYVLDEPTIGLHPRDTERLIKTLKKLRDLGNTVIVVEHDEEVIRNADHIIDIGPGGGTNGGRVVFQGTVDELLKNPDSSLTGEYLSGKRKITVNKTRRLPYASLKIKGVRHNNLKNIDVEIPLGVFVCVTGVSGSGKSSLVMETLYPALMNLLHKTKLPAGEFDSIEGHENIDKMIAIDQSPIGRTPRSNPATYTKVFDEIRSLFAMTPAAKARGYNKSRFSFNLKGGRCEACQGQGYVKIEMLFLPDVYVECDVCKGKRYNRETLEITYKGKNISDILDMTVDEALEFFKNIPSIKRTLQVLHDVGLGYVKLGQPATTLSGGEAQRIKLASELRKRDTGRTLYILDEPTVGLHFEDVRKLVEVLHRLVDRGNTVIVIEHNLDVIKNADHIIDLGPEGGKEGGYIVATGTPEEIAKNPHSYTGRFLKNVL

[2] = target: Ecm16 (Streptomyces lasalocidi, UniProt Q0X0A9); conditions: 1 µM echinomycin-DNA or DNA, 50 mM HEPES pH 7.5, 50 mM NaCl, 10 mM MgCl2, 22 °C
[3] = target: Ecm16* (Streptomyces lasalocidi (insertion domain from Streptomyces peucetius DrrC)) (UniProt Q0X0A9); assay: fluorescence polarization; conditions: apparent KD, Hill fit, FP: 50 mM HEPES pH 7.5, 50 mM NaCl, 50 nM DNA, 4-512 nM protein, temperature not stated, EMSA: same buffer plus 0.1 mg/ml BSA
[4] = target: the molecule itself; assay: crystal structure; hanging drop vapour diffusion at 18 °C; 8 mg/ml Ecm16, 10 mM MgCl2, 1 mM ADP mixed with 0.1 M MES pH 6.5, 0.2 M sodium thiocyanate, 12% PEG 20K; 2.0 Å; homodimer in the model
[5] = target: T2, Ecm16 (Streptomyces lasalocidi, UniProt Q0X0A9 1-792); assay: fluorescence polarization; no echinomycin; apparent KD, Hill fit; FP: 50 mM HEPES pH 7.5, 50 mM NaCl, 50 nM DNA, 4-512 nM protein, temperature not stated; EMSA: same buffer plus 0.1 mg/ml BSA, 50 nM DNA, echinomycin:DNA 1.1:1, 15 min at room temperature, 6% native gel at 4 °C; conditions: protein: recombinant; tags: His (pET28a, Ni-NTA); chain copies: 2; label: 5'-FAM on both strands; blunt; self-complementary
T2 sequence: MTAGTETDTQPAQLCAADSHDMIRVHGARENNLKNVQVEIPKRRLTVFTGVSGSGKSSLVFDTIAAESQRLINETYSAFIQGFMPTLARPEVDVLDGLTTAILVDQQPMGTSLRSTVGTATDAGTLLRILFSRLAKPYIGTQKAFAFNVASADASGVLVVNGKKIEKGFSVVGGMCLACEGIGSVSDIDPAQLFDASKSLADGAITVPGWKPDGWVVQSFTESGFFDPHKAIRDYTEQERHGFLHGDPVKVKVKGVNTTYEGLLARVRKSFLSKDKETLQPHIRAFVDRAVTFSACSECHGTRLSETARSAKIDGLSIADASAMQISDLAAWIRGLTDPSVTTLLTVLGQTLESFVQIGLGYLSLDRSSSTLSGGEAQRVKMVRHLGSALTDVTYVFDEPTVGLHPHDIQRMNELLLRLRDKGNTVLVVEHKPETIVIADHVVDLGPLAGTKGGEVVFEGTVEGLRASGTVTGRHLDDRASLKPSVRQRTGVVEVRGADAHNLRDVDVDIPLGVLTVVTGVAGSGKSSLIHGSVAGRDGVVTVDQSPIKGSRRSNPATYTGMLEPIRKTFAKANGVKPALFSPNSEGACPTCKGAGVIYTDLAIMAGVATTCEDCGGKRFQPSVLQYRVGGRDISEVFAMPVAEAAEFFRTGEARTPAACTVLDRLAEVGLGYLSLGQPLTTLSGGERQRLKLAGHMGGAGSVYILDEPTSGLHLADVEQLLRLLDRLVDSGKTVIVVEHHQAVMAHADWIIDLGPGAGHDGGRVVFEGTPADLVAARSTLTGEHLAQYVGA

[6] = target: T2, Ecm16; assay: fluorescence polarization; echinomycin-bound DNA; apparent KD, Hill fit; FP: 50 mM HEPES pH 7.5, 50 mM NaCl, 50 nM DNA, 4-512 nM protein, temperature not stated; EMSA: same buffer plus 0.1 mg/ml BSA, 50 nM DNA, echinomycin:DNA 1.1:1, 15 min at room temperature, 6% native gel at 4 °C; conditions: protein: recombinant; tags: His (pET28a, Ni-NTA); chain copies: 2; label: 5'-FAM on both strands; blunt; self-complementary

With `Nc1ncnc2c1ncn2[C@@H]1O[C@H](COP(=O)(O)OP(=O)(O)OP(=O)(O)O)[C@@H](O)[C@H]1O` [ATP] the “ATPase, EnzChek phosphate assay (MESG/PNP, 360 nm)” value [1] was “Ecm16* and UvrA showed a similar basal ATPase activity for all four DNA substrates” and the “ATPase, EnzChek phosphate assay (MESG/PNP, 360 nm)” value [2] was “we measured the ATP hydrolysis activity of Ecm16, Ecm16-ΔID, Ecm16*, and UvrA”.

Work on “AGTGATCAGTGGTTACGTAACCACTGATCACT (double strand) [FAM 32-bp DNA]” yielded a Kd ([3]; echinomycin-bound DNA) of 37.7 nM and a Kd ([3]; no echinomycin) of 90.8 nM.

B1: Ecm16 from Streptomyces lasalocidi (natural protein)
chain: MTAGTETDTQPAQLCAADSHDMIRVHGARENNLKNVQVEIPKRRLTVFTGVSGSGKSSLVFDTIAAESQRLINETYSAFIQGFMPTLARPEVDVLDGLTTAILVDQQPMGTSLRSTVGTATDAGTLLRILFSRLAKPYIGTQKAFAFNVASADASGVLVVNGKKIEKGFSVVGGMCLACEGIGSVSDIDPAQLFDASKSLADGAITVPGWKPDGWVVQSFTESGFFDPHKAIRDYTEQERHGFLHGDPVKVKVKGVNTTYEGLLARVRKSFLSKDKETLQPHIRAFVDRAVTFSACSECHGTRLSETARSAKIDGLSIADASAMQISDLAAWIRGLTDPSVTTLLTVLGQTLESFVQIGLGYLSLDRSSSTLSGGEAQRVKMVRHLGSALTDVTYVFDEPTVGLHPHDIQRMNELLLRLRDKGNTVLVVEHKPETIVIADHVVDLGPLAGTKGGEVVFEGTVEGLRASGTVTGRHLDDRASLKPSVRQRTGVVEVRGADAHNLRDVDVDIPLGVLTVVTGVAGSGKSSLIHGSVAGRDGVVTVDQSPIKGSRRSNPATYTGMLEPIRKTFAKANGVKPALFSPNSEGACPTCKGAGVIYTDLAIMAGVATTCEDCGGKRFQPSVLQYRVGGRDISEVFAMPVAEAAEFFRTGEARTPAACTVLDRLAEVGLGYLSLGQPLTTLSGGERQRLKLAGHMGGAGSVYILDEPTSGLHLADVEQLLRLLDRLVDSGKTVIVVEHHQAVMAHADWIIDLGPGAGHDGGRVVFEGTPADLVAARSTLTGEHLAQYVGA
notes: Ecm16, UvrA-like self-resistance protein of the echinomycin biosynthetic gene cluster, Streptomyces lasalocidi (formerly S. lasaliensis); codon-optimised gene in pET28a(+) between NdeI and EcoRI; cloning by NdeI into pET28a(+) would put a His tag on the N-terminus (surmised); also called WT Ecm16; echinomycin resistance conferring protein Ecm16; source: E. coli BL21 (DE3), purified (Ni-NTA, …)
In the case of B1, the “stoichiometry N” value [4] is reported as 2.

B2: FAM 32-bp DNA (dsDNA)
DNA 1: AGTGATCAGTGGTTACGTAACCACTGATCACT
DNA 2: AGTGATCAGTGGTTACGTAACCACTGATCACT
In the case of B2, the Kd [5] is reported as 60.2 ± 2.1 nM and the Kd [6] is reported as 11.8 ± 1.7 nM.
